Test results published in patent publication US20250179143A1 (CHILDREN S HOSPITAL OF PHILADELPHIA, published 2025).

How the values were obtained:
[1] = target: HLA-A*02:01/hb2m/KILGFVF(bF)V (human); assay: cell-based or functional assay
[2] = target: HLA-A*02:06/hb2m/KILGFVF(bF)V (human); assay: cell-based or functional assay
[3] = target: HLA-A*01:01/hb2m/STAPGJLEY (peptide-loaded) (human); assay: cell-based or functional assay
[4] = target: HLA-A*02:01/hb2m/KILGFVFJV (peptide-loaded) (human); assay: SPR, peptide-loaded HLA-A*02:01

B1: hTAPBPR^RQ (K211R, R270Q) (other)
chain: KPHPAEGQWRAVDVVLDCFLAKDGAHRGALASSEDRARASLVLKQVPVLDDGSLEDFTDFQGGTLAQDDPPIIFEASVDLVQIPQAEALLHADCSGKEVTCEISRYFLQMTETTVKTAAWFMANMQVSGGGPSISLVMKTPRVTKNEALWHPTLNLPLSPQGTVRTAVEFQVMTQTQSLSFLLGSSASLDCGFSMAPGLDLISVEWRLQHRGRGQLVYSWTAGQGQAVRKGATLEPAQLGMARDASLTLPGLTIQDEGTYICQITTSLYQAQQIIQLNIQASPKVRLSLANEALLPTLICDIAGYYPLDVVVTWTREELGGSPAQVSGASFSSLRQSVAGTYSISSSLTAEPGSAGATYTCQVTHISLEEPLGASTQVVPPERR
notes: domain: luminal domain; As m1
k2overall, fold against hTAPBPR [1]: ~60 fold | k2overall, fold against hTAPBPR [2]: ~9 fold | kapp of fluorescent peptide binding at 5 uM chaperone (FP) [3]: 0.00014 s⁻¹ | fold lower KD than hTAPBPR [4]: ~7 fold

B2: hTAPBPR^KRQ (R105K, K211R, R270Q) (other)
chain: KPHPAEGQWRAVDVVLDCFLAKDGAHRGALASSEDRARASLVLKQVPVLDDGSLEDFTDFQGGTLAQDDPPIIFEASVDLVQIPQAEALLHADCSGKEVTCEISKYFLQMTETTVKTAAWFMANMQVSGGGPSISLVMKTPRVTKNEALWHPTLNLPLSPQGTVRTAVEFQVMTQTQSLSFLLGSSASLDCGFSMAPGLDLISVEWRLQHRGRGQLVYSWTAGQGQAVRKGATLEPAQLGMARDASLTLPGLTIQDEGTYICQITTSLYQAQQIIQLNIQASPKVRLSLANEALLPTLICDIAGYYPLDVVVTWTREELGGSPAQVSGASFSSLRQSVAGTYSISSSLTAEPGSAGATYTCQVTHISLEEPLGASTQVVPPERR
notes: domain: luminal domain; As m1
k2overall, fold against hTAPBPR [1]: ~60 fold | k2overall, fold against hTAPBPR [2]: ~9 fold | kapp of fluorescent peptide binding at 5 uM chaperone (FP) [3]: 0.00013 s⁻¹ | fold lower KD than hTAPBPR [4]: ~7 fold
